B1: Insulin receptor substrate 2 (Mus musculus), P81122 (parent)
chain: MASAPLPGPPASAGGDGPNLNNNNNNNNHSVRKCGYLRKQKHGHKRFFVLRGPGTGGDEASAAGGSPPQPPRLEYYESEKKWRSKAGAPKRVIALDCCLNINKRADAKHKYLIALYTKDEYFAVAAENEQEQEGWYRALTDLVSEGRSGEGGSGTTGGSCSASLPGVLGGSAGAAGCDDNYGLVTPATAVYREVWQVNLKPKGLGQSKNLTGVYRLCLSARTIGFVKLNCEQPSVTLQLMNIRRCGHSDSFFFIEVGRSAVTGPGELWMQADDSVVAQNIHETILEAMKALKELFEFRPRSKSQSSGSSATHPISVPGARRHHHLVNLPPSQTGLVRRSRTDSLAATPPAAKCTSCRVRTASEGDGGAAGGAGTAGGRPMSVAGSPLSPGPVRAPLSRSHTLSAGCGGRPSKVTLAPAGGALQHSRSMSMPVAHSPPAATSPGSLSSSSGHGSGSYPLPPGSHPHLPHPLHHPQGQRPSSGSASASGSPSDPGFMSLDEYGSSPGDLRAFSSHRSNTPESIAETPPARDGSGGELYGYMSMDRPLSHCGRPYRRVSGDGAQDLDRGLRKRTYSLTTPARQRQVPQPSSASLDEYTLMRATFSGSSGRLCPSFPASSPKVAYNPYPEDYGDIEIGSHKSSSSNLGADDGYMPMTPGAALRSGGPNSCKSDDYMPMSPTSVSAPKQILQPRLAAALPPSGAAVPAPPSGVGRTFPVNGGGYKASSPAESSPEDSGYMRMWCGSKLSMENPDPKLLPNGDYLNMSPSEAGTAGTPPDFSAALRGGSEGLKGIPGHCYSSLPRSYKAPCSCSGDNDQYVLMSSPVGRILEEERLEPQATPGAGTFGAAGGSHTQPHHSAVPSSMRPSAIGGRPEGFLGQRCRAVRPTRLSLEGLQTLPSMQEYPLPTEPKSPGEYINIDFGEAGTRLSPPAPPLLASAASSSSLLSASSPASSLGSGTPGTSSDSRQRSPLSDYMNLDFSSPKSPKPSTRSGDTVGSMDGLLSPEASSPYPPLPPRPSTSPSSLQQPLPPAPGDLYRLPPASAATSQGPTAGSSMSSEPGDNGDYTEMAFGVAATPPQPIVAPPKPEGARVASPTSGLKRLSLMDQVSGVEAFLQVSQPPDPHRGAKVIRADPQGGRRRHSSETFSSTTTVTPVSPSFAHNSKRHNSASVENVSLRKSSEGSSTLGGGDEPPTSPGQAQPLVAVPPVPQARPWNPGQPGALIGCPGGSSSPMRRETSVGFQNGLNYIAIDVRGEQGSLAQSQPQPGDKNSWSRTRSLGGLLGTVGGSGASGVCGGPGTGALPSASTYASIDFLSHHLKEATVVKE

Variants of: B1
Conditions: with INSR

Effect of a mutation on the interaction, disrupting interaction:
D627A
Y624A
G629A
Y628F
I631A
I633A
Y621A

Variants of: B1
Conditions: with igf1r_human IGF1R

Effect of a mutation on the interaction, disrupting interaction:
Y628F

— IntAct's records for PubMed 18278056
